Reference: US20140044674A1 (Hoffmann-La Roche, published 2014)

What was measured:
[1] = molecular target: T1, His-tagged mouse FAP ECD (mouse, UniProt P97321 27-761); experiment: SPR ProteOn XPR36, 25 C; His-tagged FAP captured by anti-penta-His IgG, construct as analyte
T1 construct: also called mu FAP; murine FAP
Experimental: (§1) To determine the affinities to FAP, the target protein was captured via its H6-tag by a covalently immobilized anti-H6 antibody (FIG. 9A). Briefly, anti-penta His IgG (Qiagen #34660, mouse monoclonal antibody) was immobilized at high levels (up to ˜5.000 RU) at 30 μ/min onto separate vertical channels of a GLM chip by simultaneously activating all channels for 5 min with a freshly prepared mixture of 1-ethyl-3-(3-dimethylaminopropyl)-carboiimide (EDC) and N-hydroxysuccinimide (sNHS), subsequently injecting 15 μg/ml anti-penta His IgG in 10 mM sodium acetate buffer pH 4.5 for 180 sec. Channels were blocked using a 5-min injection of ethanolamine. H6-tagged FAP from different species (see SEQ ID NOs 81, 83 and 85) was captured from a 5 μg/ml dilution in running buffer along the vertical channels for 60 s at 30 μl/min to achieve ligand densities between ˜250 and 600 RU. In a one-shot kinetic assay set-up (OSK), antibody-IL-10 fusion constructs were injected as analytes along the horizontal channels in a five-fold dilution series ranging from 50 to 0.08 nM at 100 μl/min. Association phase was recorded for 180 s, dissociation phase for 600 s. […] Running buffer (PBST) was injected along the sixth channel to provide an “in-line” blank for referencing. Association rates (kₒₙ) and dissociation rates (koff) were calculated using a simple 1:1 Langmuir binding model (ProteOn Manager software version 2.1) by simultaneously fitting the association and dissociation sensorgrams. The equilibrium dissociation constant (KD) was calculated as the ratio koff/kₒₙ.

[2] = molecular target: T2, His-tagged cynomolgus FAP ECD (cynomolgus, UniProt Q12884 27-760 (human entry)); experiment: as above
T2 construct: also called cyno FAP
Experimental: as §1

[3] = molecular target: T3, His-tagged human FAP ECD (human, UniProt Q12884 27-760); experiment: as above
T3 construct: also called hu FAP
Experimental: as §1

[4] = molecular target: T4, human IL-10R1 ECD fused to a human Fc region, biotinylated (human, biotinylated (site not stated)); experiment: SPR ProteOn XPR36, 25 C; biotinylated hu IL-10R1-Fc on neutravidin chip, construct as analyte
T4 construct: Captured on a neutravidin chip; also called hu IL-10R1; IL-10 receptor 1
Experimental: To measure the interaction between the antibody-IL-10 fusion constructs and the human IL-10R1, an NLC chip was used for immobilization of the biotinylated receptor (FIG. 9B). Between 400 and 1600 RU of human IL-10R1 (see SEQ ID NO: 87) were captured on the neutravidin-derivatized chip matrix along vertical channels at a concentration of 10 μg/ml and a flow rate of […] for varying contact times. Binding to biotinylated human IL10R1 was measured at six different analyte concentrations (50, 10, 2, 0.4, 0.08, 0 nM) by injections in horizontal orientation at 100 μl/min, recording the association rate for 180 s, the dissociation rate for 600 s. Running buffer (PBST) was injected along the sixth channel to provide an “in-line” blank for referencing. Association rates (kₒₙ) and dissociation rates (koff) were calculated using a simple 1:1 Langmuir binding model (ProteOn Manager software version 2.1) by simultaneously fitting the association and dissociation sensorgrams. The equilibrium dissociation constant (KD) was calculated as the ratio koff/kₒₙ. As human IL-10R1 could not be regenerated without a loss of activity, the two subsequent steps of ligand capture and analyte injection were performed channel per channel using a freshly immobilized sensorchip surface for every interaction.

Row | Binder | Kd [1] | koff [1] | kon [1] | Kd [2] | koff [2] | kon [2] | Kd [3] | koff [3] | kon [3] | Kd [4] | koff [4] | kon [4]
1 | 4B9 Fab-IL-10 (other, also called Fab-IL-10 (clone 4B9)) heavy: EVQLLESGGGLVQPGGSLRLSCAASGFTFSSYAMSWVRQAPGKGLEWVSAIIGSGASTYYADSVKGRFTISRDNSKNTLYLQMNSLRAEDTAVYYCAKGWFGGFNYWGQGTLVTVSSASTKGPSVFPLAPSSKSTSGGTAALGCLVKDYFPEPVTVSWNSGALTSGVHTFPAVLQSSGLYSLSSVVTVPSSSLGTQTYICNVNHKPSNTKVDKKVEPKSCDGGGGSGGGGSGGGGSSPGQGTQSENSCTHFPGNLPNMLRDLRDAFSRVKTFFQMKDQLDNLLLKESLLEDFKGYLGCQALSEMIQFYLEEVMPQAENQDPDIKAHVNSLGENLKTLRLRLRRCHRFLPCENKSKAVEQVKNAFNKLQEKGIYKAMSEFDIFINYIEAYMTMKIRN light: EIVLTQSPGTLSLSPGERATLSCRASQSVTSSYLAWYQQKPGQAPRLLINVGSRRATGIPDRFSGSGSGTDFTLTISRLEPEDFAVYYCQQGIMLPPTFGQGTKVEIKRTVAAPSVFIFPPSDEQLKSGTASVVCLLNNFYPREAKVQWKVDNALQSGNSQESVTEQDSKDSTYSLSSTLTLSKADYEKHKVYACEVTHQGLSSPVTKSFNRGEC | 0.0234 nM | 6.27e-05 s⁻¹ | 2.68e+06 M⁻¹ s⁻¹ | 0.0175 nM | 7.27e-05 s⁻¹ | 4.16e+06 M⁻¹ s⁻¹ | 0.00105 nM | 5.72e-06 s⁻¹ | 5.47e+06 M⁻¹ s⁻¹ | 0.0212 nM | 4.57e-05 s⁻¹ | 2.15e+06 M⁻¹ s⁻¹
2 | 4B9 Fab-scIL-10-Fab (other, also called Fab-scIL-10-Fab (clone 4B9)) heavy: EVQLLESGGGLVQPGGSLRLSCAASGFTFSSYAMSWVRQAPGKGLEWVSAIIGSGASTYYADSVKGRFTISRDNSKNTLYLQMNSLRAEDTAVYYCAKGWFGGFNYWGQGTLVTVSSASTKGPSVFPLAPSSKSTSGGTAALGCLVKDYFPEPVTVSWNSGALTSGVHTFPAVLQSSGLYSLSSVVTVPSSSLGTQTYICNVNHKPSNTKVDKKVEPKSCDGGGGSGGGGSGGGGSSPGQGTQSENSCTHFPGNLPNMLRDLRDAFSRVKTFFQMKDQLDNLLLKESLLEDFKGYLGCQALSEMIQFYLEEVMPQAENQDPDIKAHVNSLGENLKTLRLRLRRCHRFLPCENKSKAVEQVKNAFNKLQEKGIYKAMSEFDIFINYIEAYMTMKIRNGGGGSGGGGSGGGGSGGGGSSPGQGTQSENSCTHFPGNLPNMLRDLRDAFSRVKTFFQMKDQLDNLLLKESLLEDFKGYLGCQALSEMIQFYLEEVMPQAENQDPDIKAHVNSLGENLKTLRLRLRRCHRFLPCENKSKAVEQVKNAFNKLQEKGIYKAMSEFDIFINYIEAYMTMKIRNGGGGSGGGGSGGGGSEVQLLESGGGLVQPGGSLRLSCAASGFTFSSYAMSWVRQAPGKGLEWVSAIIGSGASTYYADSVKGRFTISRDNSKNTLYLQMNSLRAEDTAVYYCAKGWFGGFNYWGQGTLVTVSSASTKGPSVFPLAPSSKSTSGGTAALGCLVKDYFPEPVTVSWNSGALTSGVHTFPAVLQSSGLYSLSSVVTVPSSSLGTQTYICNVNHKPSNTKVDKKVEPKSCD light: EIVLTQSPGTLSLSPGERATLSCRASQSVTSSYLAWYQQKPGQAPRLLINVGSRRATGIPDRFSGSGSGTDFTLTISRLEPEDFAVYYCQQGIMLPPTFGQGTKVEIKRTVAAPSVFIFPPSDEQLKSGTASVVCLLNNFYPREAKVQWKVDNALQSGNSQESVTEQDSKDSTYSLSSTLTLSKADYEKHKVYACEVTHQGLSSPVTKSFNRGEC | 0.0303 nM | 7.4e-05 s⁻¹ | 2.45e+06 M⁻¹ s⁻¹ | 0.00679 nM | 3.35e-05 s⁻¹ | 4.93e+06 M⁻¹ s⁻¹ | 0.00656 nM | 3.11e-05 s⁻¹ | 4.74e+06 M⁻¹ s⁻¹ | 0.0553 nM | 9.58e-05 s⁻¹ | 1.73e+06 M⁻¹ s⁻¹
